Assay results from IntAct's records for PubMed 23803857.

B1: C-type lectin domain family 2 member A (Homo sapiens), Q6UVW9 (parent)
chain: MINPELRDGRADGFIHRIVPKLIQNWKIGLMCFLSIIITTVCIIMIATWSKHAKPVACSGDWLGVRDKCFYFSDDTRNWTASKIFCSLQKAELAQIDTQEDMEFLKRYAGTDMHWIGLSRKQGDSWKWTNGTTFNGWFEIIGNGSFAFLSADGVHSSRGFIDIKWICSKPKYFL
partner: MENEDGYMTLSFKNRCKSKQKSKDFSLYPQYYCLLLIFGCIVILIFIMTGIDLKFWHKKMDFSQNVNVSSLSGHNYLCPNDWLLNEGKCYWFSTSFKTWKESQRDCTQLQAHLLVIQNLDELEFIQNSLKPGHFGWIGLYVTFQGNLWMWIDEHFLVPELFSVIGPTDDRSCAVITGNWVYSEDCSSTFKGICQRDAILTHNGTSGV

Variants of: B1
Settings: with klrf2_human KLRF2, D3W0D1

Variant	effect of a mutation on the interaction
MINPELRDGRADGFIHRIVPKLIQNWKIGLMCFLSIIITTVCIIMIATWSKHAKPVACSGDWLGVRDKCFYFSDDTRNWTASKIFCSLQKAELAQIDTQEDMEFLKRYAGAAAHWIGLSRKQGDSWKWTNGTTFNGWFEIIGNGSFAFLSADGVHSSRGFIDIKWICSKPKYFL	with no effect
MINPELRDGRADGFIHRIVPKLIQNWKIGLMCFLSIIITTVCIIMIATWSKHAKPVACSGDWLGVRDKCFYFSDDTRNWTASKIFCSLQKAELAQIDTQEDMEFLKRYAGTDMHWIGLSRKQGDSWKWTNGTTFNGWFEIIGNGSFAFLSADGVHSAAGFIDIKWICSKPKYFL	decreasing interaction strength
MINPELRDGRADGFIHRIVPKLIQNWKIGLMCFLSIIITTVCIIMIATWSKHAKPVACSGDWLGVRDKCFYFSDDTRNWTASKIFCSLQKAELAQIDTQEDMEFLKRYAGTDMHWIGLSRKQGDSWKWTNGTTFNGWFEIIGNGSFAFLSAAGVHSSRGFIDIKWICSKPKYFL	with no effect
MINPELRDGRADGFIHRIVPKLIQNWKIGLMCFLSIIITTVCIIMIATWSKHAKPVACSGDWLGVRDKCFYFSDDTRNWTASKIFCSLQKAELAQIDTQEDMEFLKRYAGTDMHWIGLSRKQGDSWKWTNGTTFNGWFEIIGNGSFAFLSADGVHSSRGFIAIKWICSKPKYFL	decreasing interaction strength

Next, values leading:

effect of a mutation on the interaction	Variant
decreasing interaction strength	MINPELRDGRADGFIHRIVPKLIQNWKIGLMCFLSIIITTVCIIMIATWSKHAKPVACSGDWLGVRDKCFYFSDDTRNWTASKIFCSLQKAELAQIDTQEDMEFLKRYAGTDMHWIGLSRKQGDSWKWTNGTTFNGWFEIIGNGSFAALSADGVHSSRGFIDIKWICSKPKYFL
decreasing interaction strength	MINPELRDGRADGFIHRIVPKLIQNWKIGLMCFLSIIITTVCIIMIATWSKHAKPVACSGDWLGVRDKCFYFSDDTRNWTASKIFCSLQKAELAQIDTQEDMEFLKRYAGTDMHWIGLSRKQGDSWKWTNGTTFNGWFEIIGNGSFAFLSADGVASSRGFIDIKWICSKPKYFL
decreasing interaction strength	MINPELRDGRADGFIHRIVPKLIQNWKIGLMCFLSIIITTVCIIMIATWSKHAKPVACSGDWLGVRDKCFYFSDDTRNWTASKIFCSLQKAELAQIDTQEDMEFLKRYAGTDMHWIGLSRKQGDSWKWTNGTTFNGWFEIIGNGSFAFLSADGVHSSRGAADIKWICSKPKYFL
